From the RNAGym collection of RNA variant scans (doi:10.1073/pnas.2313332121)
This sample holds only a part of the variants without activity.

B1: TPR 5TU (parent)
chain: GGAUCUUCUCGAUCUAACAAAAAAGACAAAUCUGCCACAAAGCUUGAGAGCAUCUUCGGAUGCAGAGGCGGCAGCCUUCGGUGGCGCGAUAGCGCCAACGUUCUCAACUAUGACACGCAAAACGCGUGCUCCGUUGAAUGGAGUUUAUCAUG

Variants of: B1
Test: polymerase ribozyme fitness, log enrichment relative to wild type (log ratio); higher = more active; in vitro selection for triplet polymerase activity
How it was run: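 Only genotypes with ≥10 input reads and ≥1 read per output were kept after Illumina sequencing of input and output libraries. These libraries were PCR-built, transcribed mutants of each subunit of a heterodimeric triplet polymerase ribozyme, each put through one triplicate in vitro selection round with frozen incubation at −7 °C, gel excision of extended constructs, streptavidin-bead capture and RT-PCR. Fitness is a logarithmic ratio of genotype enrichment to wild-type enrichment, from inverse-variance-weighted replicate averages, with the logarithm in base 2.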

Row | Variant | polymerase ribozyme fitness (log ratio)
1 | C85G A122G | -3.42
2 | G83C A89C G126A | -0.834
3 | G83A C132U | -0.931
4 | G84U G117U C123A | -1.62
5 | C85U A119C | -0.984
6 | C85U A119G | -1.31
7 | G83A A121G U145G U148G | ≤ -4.2
8 | C85A U139C | -4.1
9 | C85G A122G C123A | -2.57
10 | G83U A97U C105U G117U G141U | ≤ -4.2
11 | G83C G117U C131U | -0.254
12 | C85U C114A | -3.52
13 | U82C C95U | -1.92
14 | C85G C99U G140U | ≤ -4.2
15 | C85U C93U | -1.93
16 | C85U C93A | -2.72
17 | C85G G117A | -2.7
18 | G83U U135A | -1.05
19 | G84U A89U A98U G126U | -0.825
20 | U82C A89C C96U U101G A115C | -1.01
21 | C85A G140C | -3.64

Row | Variant | polymerase ribozyme fitness (log ratio)
22 | G83A A89G C116U | -1.69
23 | G81A A120G U148C | -2.99
24 | C85U A122U | -0.795
25 | G81U C85G | -1.76
26 | G80A G94C C125A G143A | ≤ -4.2
27 | C79U G143U | -4.12
28 | C85A A115G | -2.38
29 | G81C C85U A97G U109G | -0.959
30 | G84U U134A U144C A150U | ≤ -4.2
31 | G84A U101G | -0.429
32 | C85A C95U | -1.98
33 | C85U C95A | -0.427
34 | G83U U104C | -0.855
35 | G84A C87U C95G A142C | -2.26
36 | C85U C99G U111C A142G | ≤ -4.2
37 | G81U C96U A107U U145C | -3.1
38 | G84A C87A | ≤ -4.2
39 | G80A C93G A97G A115C | -3.64
40 | G81A A97G A115G | -0.993
41 | G80A C105U | 0.692
42 | C85A G141A U146G | -1.68

Row | Variant | polymerase ribozyme fitness (log ratio)
43 | G84U A91G | -2.81
44 | G83U A91C | ≤ -4.2
45 | G81C A89C A98U A107U U144C | ≤ -4.2
46 | G83A G143A | -1.28
47 | G84A C125A C132A G140U | -1.25
48 | G84U C85G C96G | -3.84
49 | C85U A97C G124U | 0.338
50 | C85U C105G A142U | -2.01
51 | G81U A98G | -0.549
52 | C85U A106U A113C A115U | ≤ -4.2
53 | C85G C116U U144G | -0.537
54 | C85A C103U C123G A147U | -0.703
55 | C85G U151C | -4.2
56 | G83A A115G G136A U144C | -3.84
57 | G84A G126A | 0.571
58 | G84A G126U | -0.0664
59 | G84U G141C U144A | ≤ -4.2
60 | C79U | -1.47
61 | C85G A107U G126U C132U | ≤ -4.2
62 | G83U G128C | -3.55
63 | G81A C95A A147C | 0.16

Row | Variant | polymerase ribozyme fitness (log ratio)
64 | U82C C131G | -2.45
65 | G83A C129G | -3.81
66 | U82A G86C | -2.69
67 | G83C G92C G100A U104G U146A | ≤ -4.2
68 | G81U G84C | -3.22
69 | G81C G117U | 0.139
70 | G84A A121G C123U C131U | 0.94
71 | G81A C93A | -2.37
72 | C85A G133C | -3.5
73 | G80A U82G | 0.0436
74 | U82C U101A | 0.112
75 | U82G C93U | -1.51
76 | C85A C114U | -3.28
77 | C85G C99A | -3.3
78 | C85G C99U | -3.51
79 | U82G A98G | 0.302
80 | G84A G112C | -2.71
81 | U82A G83A A98G U127C | -3.36
82 | C85G C87U U145G | -3.08
83 | C85A G86U | -3.2
84 | C85U C116U A147U | 0.541
